{
  "source": "patent US20120141463A1",
  "binders": {"B1": {"name": "D5 antibody (antibody, V domains shown)", "VH": "EVQLLESGGGLVQPGGSLRLSCAASGFTFSKYHMVWVRQAPGKGLEWVSSIGPSGGNTYYADSVKGRFTISRDNSKNTLYLQMNSLRAEDTATYYCARALGATFDYWGQGTLVTVSS", "VL": "DIQMTQSPLSLPVTLGQPASISCKSSQSLVYRDGITYLSWFQQRPGQSPRRLIYKVSNRDSGVPDRFSGSGSDSNFTLKISSVEAEDVGLYFCMQGSHWPFTFGPGTKVDIKR"}},
  "target": "membrane anchored IgE on transfected 293 cells (human) (UniProt P01854)",
  "sequence (P01854 whole entry)": "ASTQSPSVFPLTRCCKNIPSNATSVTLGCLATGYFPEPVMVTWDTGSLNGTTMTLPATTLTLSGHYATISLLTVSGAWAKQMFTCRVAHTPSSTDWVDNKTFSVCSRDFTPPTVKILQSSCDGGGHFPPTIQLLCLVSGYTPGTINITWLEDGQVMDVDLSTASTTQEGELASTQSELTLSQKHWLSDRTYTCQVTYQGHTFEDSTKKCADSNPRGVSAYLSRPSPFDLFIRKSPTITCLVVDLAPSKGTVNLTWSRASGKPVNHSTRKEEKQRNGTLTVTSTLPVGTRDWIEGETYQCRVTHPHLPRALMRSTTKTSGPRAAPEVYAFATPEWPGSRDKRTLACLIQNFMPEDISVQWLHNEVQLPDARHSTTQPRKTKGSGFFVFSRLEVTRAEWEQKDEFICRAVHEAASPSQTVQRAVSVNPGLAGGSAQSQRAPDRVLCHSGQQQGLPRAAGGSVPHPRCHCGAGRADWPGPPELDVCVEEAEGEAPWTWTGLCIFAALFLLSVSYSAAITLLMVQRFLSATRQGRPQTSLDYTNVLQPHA",
  "assay": "cell-based or functional assay",
  "data": [
    {"binder": "B1", "values": [
      {"measurement": "ADCC activity (% cytotoxicity, LDH release, PBMC effectors)", "result": "< 70", "unit": "%"}
    ]}
  ]
}
